Where “and” joins values, the source holds several entries; their conditions need not be identical. Identical values can stand only once.
T1: human prolactin receptor (PRLR) on cells (human, UniProt P16471 25-622)
T1 sequence (looked up): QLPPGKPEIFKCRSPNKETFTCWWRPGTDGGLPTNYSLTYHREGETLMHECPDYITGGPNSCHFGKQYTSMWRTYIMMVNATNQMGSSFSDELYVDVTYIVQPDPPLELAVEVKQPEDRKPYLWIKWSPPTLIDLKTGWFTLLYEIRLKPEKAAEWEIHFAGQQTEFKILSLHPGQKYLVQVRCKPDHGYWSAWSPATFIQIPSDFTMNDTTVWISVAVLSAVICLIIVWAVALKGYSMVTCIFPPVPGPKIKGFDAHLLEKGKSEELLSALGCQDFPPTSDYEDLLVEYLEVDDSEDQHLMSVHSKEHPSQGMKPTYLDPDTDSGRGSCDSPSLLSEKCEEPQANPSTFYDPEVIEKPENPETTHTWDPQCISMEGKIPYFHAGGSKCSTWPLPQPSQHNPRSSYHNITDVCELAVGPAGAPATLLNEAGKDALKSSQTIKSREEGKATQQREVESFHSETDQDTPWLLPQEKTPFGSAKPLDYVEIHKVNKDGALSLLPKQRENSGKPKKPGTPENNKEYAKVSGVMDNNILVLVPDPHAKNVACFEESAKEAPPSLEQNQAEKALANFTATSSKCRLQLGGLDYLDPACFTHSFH

T2: murine prolactin receptor (PRLR) on cells (mouse, UniProt Q08501 20-608)
T2 sequence (looked up): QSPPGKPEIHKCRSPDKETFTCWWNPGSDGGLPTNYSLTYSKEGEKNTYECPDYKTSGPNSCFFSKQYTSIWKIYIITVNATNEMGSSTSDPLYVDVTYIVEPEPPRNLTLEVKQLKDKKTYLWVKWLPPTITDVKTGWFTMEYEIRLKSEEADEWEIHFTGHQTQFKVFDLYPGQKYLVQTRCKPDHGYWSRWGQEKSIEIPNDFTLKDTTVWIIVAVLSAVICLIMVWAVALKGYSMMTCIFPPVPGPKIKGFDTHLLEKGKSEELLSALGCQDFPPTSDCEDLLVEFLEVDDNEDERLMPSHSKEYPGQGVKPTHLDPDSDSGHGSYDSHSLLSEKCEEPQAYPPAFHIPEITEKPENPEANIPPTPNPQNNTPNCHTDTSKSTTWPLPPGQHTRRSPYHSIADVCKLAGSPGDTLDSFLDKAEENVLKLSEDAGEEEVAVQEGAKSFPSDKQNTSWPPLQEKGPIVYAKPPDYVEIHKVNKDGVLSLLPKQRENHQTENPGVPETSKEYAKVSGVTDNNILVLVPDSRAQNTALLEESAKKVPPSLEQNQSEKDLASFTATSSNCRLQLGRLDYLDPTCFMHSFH

T3: rat prolactin receptor (PRLR) on Nb2 lymphoma cells (rat, UniProt P05710 20-610)
T3 construct: whole, on cells; also called rat PRLR
T3 sequence (looked up): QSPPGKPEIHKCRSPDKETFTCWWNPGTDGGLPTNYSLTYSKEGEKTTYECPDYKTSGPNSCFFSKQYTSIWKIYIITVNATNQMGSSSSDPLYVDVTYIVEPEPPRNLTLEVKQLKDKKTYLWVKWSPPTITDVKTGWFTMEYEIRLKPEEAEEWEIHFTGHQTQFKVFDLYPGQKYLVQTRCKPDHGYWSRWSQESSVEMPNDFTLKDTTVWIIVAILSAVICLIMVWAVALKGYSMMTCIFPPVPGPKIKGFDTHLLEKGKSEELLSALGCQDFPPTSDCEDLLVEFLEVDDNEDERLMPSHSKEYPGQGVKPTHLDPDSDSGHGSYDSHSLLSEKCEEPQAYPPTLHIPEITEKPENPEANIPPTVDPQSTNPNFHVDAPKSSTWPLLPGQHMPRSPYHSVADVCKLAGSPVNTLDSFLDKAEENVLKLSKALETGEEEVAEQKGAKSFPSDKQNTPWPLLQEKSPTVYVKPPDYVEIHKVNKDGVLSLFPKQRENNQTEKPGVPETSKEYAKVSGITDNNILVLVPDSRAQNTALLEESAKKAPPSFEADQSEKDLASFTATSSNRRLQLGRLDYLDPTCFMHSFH

T4: extracellular domain of human PRLR (monomeric, soluble) (human, UniProt P16471 25-234)
T4 construct: also called ECD-PRLR; ECD of PRLR
T4 sequence: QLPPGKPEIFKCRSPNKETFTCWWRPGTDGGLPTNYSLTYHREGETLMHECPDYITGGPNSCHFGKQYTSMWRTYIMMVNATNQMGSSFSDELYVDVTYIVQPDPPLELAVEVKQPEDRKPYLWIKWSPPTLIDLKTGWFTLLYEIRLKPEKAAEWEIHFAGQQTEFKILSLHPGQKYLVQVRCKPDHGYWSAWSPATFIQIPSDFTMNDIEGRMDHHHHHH


What was measured:
[1] = biological target: T1, human prolactin receptor (PRLR) on cells; assay: cell-based or functional assay
[2] = biological target: T2, murine prolactin receptor (PRLR) on …; assay: cell-based or functional assay
[3] = biological target: T3, rat prolactin receptor (PRLR) on Nb2 …; assay: FACS on rat lymphoma cell line Nb2, IgG1
[4] = biological target: T1, human prolactin receptor (PRLR) on cells; assay: FACS on human breast cancer cell line T47D, IgG1
[5] = biological target: T4, extracellular domain of human PRLR …; assay: SPR (Biacore), IgG1 directly immobilized, monomeric human PRLR ECD from HEK293 as analyte
[6] = biological target: T2, murine prolactin receptor (PRLR) on …; assay: flow cytometry on HEK293 cells stably expressing murine PRLR, PE anti-human IgG, fixed 0.37 µg/ml IgG
Procedure: In order to determine the binding characteristics of the anti-PRLR antibodies on mouse and human PRLR expressed on cells, binding was tested by flow cytometry on HEK293 cells stably expressing the human and murine PRLR, respectively. The cells as well as the parental HEK293 cell line without PRLR were harvested, centrifuged and resuspended at approximately 5×10⁶ cells/ml in 1×PBS containing 2% FBS and 0.1% sodium azide (FACS buffer). The antibodies 005-C04, 001-E06 and HE06.642 were diluted to 2-fold final concentration in FACS buffer and added to appropriate sample wells (50 μl/well). For secondary antibody and autofluorescence controls, 50 μl FACS buffer was added to appropriate wells. 50 μl of cell suspension was added to each sample well. Samples were incubated at 4° C. for one hour, washed twice with cold FACS buffer and resuspended in FACS buffer containing PE-conjugated goat anti-human IgG at a 1:100 dilution. Following a 30 min incubation at 4° C., cells were washed twice with cold FACS buffer, resuspended in FACS buffer containing […] propidium iodide (Invitrogen, San Diego, Calif.) and analyzed by flow cytometry. […] This observation is consistent with the finding reported in example 9 about the missing efficacy of HE06.642 in the murine PRLR-dependent luciferase reporter gene assay. […]

[7] = biological target: T3, rat prolactin receptor (PRLR) on Nb2 …; assay: cell-based or functional assay

IC50, inhibition of prolactin-activated Ba/F cell proliferation (human PRLR) [1] | IC50, prolactin-activated luciferase reporter gene activity, HEK293 cells with hPRLR [1] | IC50, inhibition of prolactin-activated Ba/F cell proliferation (murine PRLR) [2] | EC50 [3] [nM] | EC50 [4] [nM] | Kd [5] [nM] | koff [5] [s⁻¹] | binding result [6] | IC50, inhibition of prolactin-induced rat lymphoma cell proliferation (NB2 cells) [7] | IC50, prolactin-activated luciferase reporter gene activity, HEK293 cells with mPRLR [2] | Binder
0.34 µg/ml and 2.2 nM | 0.63 mg/ml and 4.2 nM | > 30 mg/ml and > 200 nM | 0.9 | 1.8 | 0.3 | 0.00032 | no binding (tested: 0.37 µg/ml) | – | – | HE06.642 (antibody, V domains shown, Human Engineered Novartis antibody (WO2008/022295); tested as human IgG1) VH: EVQLVESGGGLVQPGGSLRLSCAVSGFTFSSYGMSWVRQAPGKGLEWVATVSSGGTYTYYPDSVKGRFTISRDNSKNTLYLQMNSLRAEDTAVYYCARHRGNYYATYYYAMDYWGQGTLVTVSS VL: DIVLTQSPDSLAVSLGERATINCKASKSVSTSGYTYMHWYQQKPGQPPKLLIYLASNRESGVPDRFSGSGSGTDFTLTISPVQAEDVATYYCQHSGELPPSFGQGTKLEIKR
– | – | – | 1.1 | 1.5 | 1.2 | 0.00013 | – | 10 µg/ml and 67 nM | > 50 mg/ml and > 333 nM | XHA06.642 (antibody, V domains shown, Novartis antibody (WO2008/022295)) VH: EVQLVESGGDLVKPGGSLKLSCAVSGFTFSSYGMSWVRQTPDKRLEWVATVSSGGTYTYYPDSVKGRFTISRDNAKNTLYLQMSSLKSEDSAMYYCARHRGNYYATYYYAMDYWGQGTSVTVSS VL: DIVLTQSPASLAVSLGQGATISCRASKSVSTSGYTYMHWYQQKPGQPPKLLIYLASNLESGVPARFSGSGSGTDFTLNIHPVEEEDAATYYCQHSGELPPSFGGGTKLEIKR

Reference: US20130129739A1 (Bayer, published 2013)
